Reference: the DeepSol protein solubility set

Assay: soluble on expression in E. coli; label from the status in PepcDB or PDB records

Sequence | soluble on expression in E. coli
MSLNKKRPLKGRFLHITDIHPDPHYKTGSTFDSGCHRKPKKDGKSEGKKATENERGNEDLDDKEFDTLIKNEDLAGKWGTAVSDCDCPMSLVNITFDWLKEEWANEVDFVVWTGDNARHDIDRRIPRTPKEIFDSNRMIVDRMLDAFGRDMPIVPSIGNNDIYPHNVLAAGPSRITEEFLLIWKHFIPSEAAHVFERGAYFSVEVIPDRLAVISLNTLFWYDANTLVDGCRDHSNDPGALEMDWLEVQLNNFRQRGMQVWLTGHVPPHMNHYYDNCYLRYGDLALRYQDTIVGHLFGHMNVDHFFFIDVDELEATSELTSTSSNTTLSDLPLLHGPRLPRPGPGKYTAMGRSGARKLEEELRKDEGHHHHHH | soluble
MGSDKIHHHHHHMQAEAQHPKAEQYRTARLSRDARFDGLFFVGVFSTGIFCRPICPAVPAKEANVRYFDDALSAAQAGLRPCLRCRPDSAPGSNPWLGKQTSLNRAMSLIDAGVLCGPQAIPMTGLAERLGISERYLRQLFHDSLGTSPKQYALYQQLMFAKQLLHQTKMPITQVAYAAGFNSVRRFNEIFRQQLQLTPSEIRKATGQPSLPVQGLTLKLAYRPPYDWQHLRSFFAQRAVPEMEWLDEQSYGRSFVLGAAKGYFCAVHSEQEACFHVTIHLAEADSLSQLKGIISHIRRILDLDADMLTIGDKLQALGKALPQVSPGLRLPGVWSPFEAACRAILGQQVSVTQAIKLLGQLVADHGETISLNEKTVRLFPTPAALVDASLDGLKMPGIRKEAIRALAAFVMANPESEIDDWLQIKGIGPWTLDYVRLRGLSLPDVLLVGDLVVKQQLLVNLRPEPSSCDGEPAEDEDPKAAKKRAQAQYQALSQAVLRQVAPWGSYLTLQLWNRQ | not soluble
MSHQSPPIAEVDATDDMHEALFAKRGCCFLMPCLASSQPSTRGGSVWWQRITTVDKLEPDERWWIRGWRRMREWSELVAGPRWKTYIRRFGRSNCCGGGGGRVGNSSGGCGGGAMPNRSSDQGKFRYDQLSYSLNFDDGNQTGHFDDEFPYRDYSMRFAAPSLPVSTKCSIDFDSDIDNK | soluble
MSLYSIIDIETTGGHASGNRIIEIAIYKFDGEKITDTYQTLINPERRIPVFITSLTGIDTEMVADAPVFADVAREITDFTRDSVFVAHNVNFDYTFVKKELQALNMPYNLPKLCTVRLSRKIFPGLPSYSLGNLCGSLGIDVQNRHRAAGDAEATVRLLNKLLLNDTEGFIPKSLKKNSKETLLPANLPREQFDALPETFGVYYFHDHKGKVIYVGKANNIKKRVISHFSGKQQNQKSQQFMQAIYGLSYEVCGSELLSLLLESHEIKKYFPVYNSIQKFGEKNYGIYQYEDNAGFIRLSIAKVNKLQHPLISFRYISEARTFLLEKVRTFQLCHRRSGLQTAPCSDVELCTACKGTTRSTAYNVKMKRALATFEHPDHSYIIKQPGRTRDEYAVIVVEAGRYLGYAYIPADLSGSTIEELKPFVNRHPDNRDIQKILAMHQRKSMVIAVEGHHHHHH | not soluble
MQRTLNVGVILCESFISNAQNPVNSYIKIYENVRMFEFAIKLLQESRINFQKILLYVLEEQIPLVEKVVAKYENCWVFRSKHNEVEDIYEAKGFIEDKYKIGLKSSKNQASSYYDNCCFVVLEACRPLTSKKVVKNVYEKAMIDGAAVAVLPFERQLVCGDNTKAVRQLKDKGNMNYWRQSSTWELQFPQAYTLNKLNQYHKNLFMKARNMLDLMNISAKNPLSIVDGSAYSFRVVTSLDFEILLGILRNG | not soluble
MSQFTHYPPVSDKQLGFFIDSSRCSGCKACQVACKDKNNLEVGRRFRRVYEVKGGSFIPTGQGGVSNNVFAYTLSISCNHCADPVCTKNCPTTAMHKRPGDGIVRVDTDKCVGCGYCAWSCPYGAPQLNEQTGQMSKCDMCVDLLAKGEPPVCVATCPLEAIKFGPIDELRAKYGSVCDVNGLPDSSITKPNLVVKAHQGAEKEGKRHA | not soluble
MSLVRGVLKRSKFRKMIRRAKVGDAKYIYELLTEFAKRGILLPRSLNSIYENIRDFWVYEKDGKVVGCVALHVMWEDLAEIRSLAVKEEYQKEGIGRELVIRALEDAWELGIKKVFSLTYVKEFFKKLGFKEIDKSVLPHKVWGECINCVKFPNCDEEAVLVELSEEYIKKLKEGEKISSLLPEGHHHHHH | soluble
GTGAESTAERSARFERDALEFLDQMYSAALRMTRNPADAEDLVQETYAKAYASFHQFREGTNLKAWLYRILTNTFINSYRKKQREPQ | soluble
